The values below come from patent publication US10351618B2, “UTI fusion proteins” (Takeda Pharmaceutical Company Limited, priority 2014, dated 2019).

Data set [1] is described as follows: Thermal stability by differential scanning calorimetry. It is filed as physicochemical. How it is done:
Assays were performed to measure the thermal and real-time stability. […] Thermal stability was measured by differential scanning calorimetry on a Microcal VP-DSC calorimeter. Samples were prepared at 1 mg/ml and buffered in 0.25 mM Tris pH7.4, 0.13M NaCl and 0.0027M KCl. Samples were heated from 25° C. to 110° C. at a rate of 200° C. per hour. UTI-Fc1 was compared to Application Publication Number CN 103044554 A, SEQ ID's 2 and 6, which comprise an IgG2 or IgG1 Fc domain respectively.
(Differential scanning calorimetry records heat flow against a reference as temperature is scanned.)

The target of data set [2] is plasmin (Homo sapiens, UniProt P00747). Description: Protease inhibition at Reaction Biology Corporation: plasmin. It is filed as biochemical. Particulars: FIG. 7. The method, then:
(§1) Measurement of the inhibition of other proteases by UTI-Fc1 was also measured at Reaction Biology Corporation (Malvern, Pa.). […] FIG. 7 lists the inhibitory constants of UTI-Fc1 for a variety of proteases.

In data set [3] the test system is C5a. Description: LPS induced C5a in C3H mice (complement inhibition in vivo). Details: species or system C3h/HeJ mice. Particulars: 4 hours post LPS dose, p<0.05, FIG. 10. The method, then: UTI-Fc1 (SEQ ID NO:1) affects on the complement system were measured in vivo. Female, C3h/HeJ mice were purchased from Jackson Laboratories. Animals are dosed according to the experimental design Table 10. Animals were injected i.p. (100 ul/mouse) 15 minutes post dose with LPS at time zero. Animals were euthanized at 2 and 4 hours post LPS injection by CO2 overdose and blood was collected by cardiac puncture. Blood was transferred to serum separator microtubes and allowed to clot at room temperature for 30 minutes. Subsequently, microtubes were centrifuged at 12,000 rpm for 5 minutes and serum was removed and aliquoted to a 96 well plate. Rosmarinic acid was used as a positive control and used as 3 mg/ml in saline. The 96 well plate was frozen at −20° C. Serum samples were analyzed for C5a content by duoset. Statistical significance was determined using Prism graphing software and effects were considering statistically significant if p<0.05.

Data set [4] concerns the target T1, caspase-1 (Homo sapiens, UniProt P29466).
T1 sequence (P29466 120-404): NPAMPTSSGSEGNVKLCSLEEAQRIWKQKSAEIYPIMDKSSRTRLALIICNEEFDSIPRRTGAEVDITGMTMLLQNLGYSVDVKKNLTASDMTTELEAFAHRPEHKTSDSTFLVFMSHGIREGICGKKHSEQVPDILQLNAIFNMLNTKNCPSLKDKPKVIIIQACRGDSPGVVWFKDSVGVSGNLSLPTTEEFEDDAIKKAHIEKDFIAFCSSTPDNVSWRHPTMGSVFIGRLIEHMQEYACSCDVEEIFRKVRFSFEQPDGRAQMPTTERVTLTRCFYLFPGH
Description: Protease inhibition at Reaction Biology Corporation: caspase-1. Particulars: FIG. 7. The data set is classed as biochemical. How it is done: as §1

Data set [5] can be described thus: Real-time stability (SEC, A280, PAGE) in TBS pH7.4. The data set is classed as physicochemical. The method, then:
Real-time stability measurements were performed by incubating SEQ ID NO:1 (UTI-Fc1) or CN 103044554 A, SEQ IDS 2 or 6 at 2-8° C., and 40° C. for 0, 2 and 4 weeks in TBS, pH7.4 buffer. The formation of higher and lower molecular weight species was determined by size exclusion chromatography (SEC) and visualized with polyacrilamide gel electrophoresis (PAGE). The concentration of each UTI-Fc was also monitored by determination of the absorbance of the solution at 280 nm (A280), using extinction coefficients determine by the protein composition. The UTI-Fc molecules produce two, partially overlapping peaks, when analyzed by SEC. The percentage peak area in each UTI-Fc sample measured by SEC is reported in Table 9 at time=0 weeks, 2 weeks, and 4 weeks. Also shown is the percentage change in concentration measured by A280 (% A (mg/ml)) at time=2 weeks and 4 weeks. The initial TO concentration of each sample was UTI-Fc1=33.5 mg/mL, CN 103044554 A SEQ ID 2=8.5 mg/mL, and CN 103044554 A SEQ ID 6=5.6 mg/mL. A variability of 3% is typical for SEC and 15% for individual UV measurements.

For data set [6], the system named is chymotrypsin. Description: Protease inhibition at Reaction Biology Corporation: chymotrypsin. Particulars: FIG. 6, FIG. 7. The data set is classed as biochemical. How it is done: as §1
Data set [7] deals with T2, papain (Carica papaya, UniProt P00784).
T2 sequence (P00784 134-345): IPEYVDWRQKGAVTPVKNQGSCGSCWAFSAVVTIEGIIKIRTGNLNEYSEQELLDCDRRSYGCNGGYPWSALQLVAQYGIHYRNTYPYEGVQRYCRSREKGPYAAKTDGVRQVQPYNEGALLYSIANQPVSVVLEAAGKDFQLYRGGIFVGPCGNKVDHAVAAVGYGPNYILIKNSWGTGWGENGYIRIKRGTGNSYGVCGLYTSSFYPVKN
The experiment in a line: Protease inhibition at Reaction Biology Corporation: papain. The data set is classed as biochemical. Particulars: FIG. 7. The method, then: as §1

Data set [8] has as its target cathepsin C (Homo sapiens, UniProt P53634). The experiment in a line: Protease inhibition at Reaction Biology Corporation: cathepsin C. It is filed as biochemical. Particulars: FIG. 7. How it is done: as §1
The conditions of data set [9]: rodents and humans (Fries et al 2000); cited from earlier work.
The target in data set [10] is plasma kallikrien (Homo sapiens, UniProt P03952). Particulars: full-length UTI (Morishita et al. 1994); cited from earlier work.
plasma kallikrien, sequence (P03952 20-638): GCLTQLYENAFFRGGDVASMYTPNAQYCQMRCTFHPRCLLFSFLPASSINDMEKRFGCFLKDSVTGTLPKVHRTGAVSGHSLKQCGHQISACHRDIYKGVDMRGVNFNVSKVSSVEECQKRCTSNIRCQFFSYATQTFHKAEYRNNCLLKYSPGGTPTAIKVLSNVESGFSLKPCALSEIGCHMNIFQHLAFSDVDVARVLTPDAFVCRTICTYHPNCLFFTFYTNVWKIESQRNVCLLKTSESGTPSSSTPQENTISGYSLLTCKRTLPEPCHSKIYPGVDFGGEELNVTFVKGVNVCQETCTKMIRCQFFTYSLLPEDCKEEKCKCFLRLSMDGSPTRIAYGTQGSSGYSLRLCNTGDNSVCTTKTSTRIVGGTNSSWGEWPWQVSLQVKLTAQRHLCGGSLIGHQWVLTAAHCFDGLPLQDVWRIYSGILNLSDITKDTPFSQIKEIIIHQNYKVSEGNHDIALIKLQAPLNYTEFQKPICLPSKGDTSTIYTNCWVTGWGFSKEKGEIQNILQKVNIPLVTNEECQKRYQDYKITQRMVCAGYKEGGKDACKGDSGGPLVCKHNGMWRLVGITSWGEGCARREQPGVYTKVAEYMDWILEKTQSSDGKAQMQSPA
In data set [11] the test system is trypsin-induced IL-6 production in BEAS2B cells. Description: Inhibition of trypsin-induced IL-6 release in BEAS2B cells. It is filed as cell-based, human. Particulars: 100 nM trypsin, 8 hours, FIG. 8. The method, then: UTI-Fc1 inhibition of cytokine release was measure in a cell-based assay. BEAS2B cells were seeded at the density of 20,000 cells/well in 96 well plate and cultured using complete BEGM Bullet Kit (Lonza) in CO2 incubator. After 24 hours, the culture media were replaced with plain DMEM for starvation and cells were cultured overnight. Then cells were incubated with fresh plain DMEM containing 100 nM trypsin with various concentrations of human urine UTI or recombinant UTI-Fc1 proteins. After 8 hours, culture supernatants were collected and IL-6 protein levels were assessed using human IL-6 DuoSet (R&D Systems).

Data set [12] concerns the target T3, Human pancreatic trypsin (Homo sapiens, UniProt P07477).
T3 construct: purchased Athens Research & Technology, Inc
Description: In vitro enzymatic assay for trypsin inhibition. Particulars: human pancreatic trypsin 1.5 nM, 15 min pre-incubation, FIG. 5. The data set is classed as biochemical. The method, then: Solutions of UTI-Fc1 at various concentrations 200 nM final concentration) are prepared in 50 mM HEPES, 150 mM NaCl, 20 mM CaC12 and 0.01% Brij L23, pH 7.4. Activity assays were performed in Greiner 384-well small volume plates. All steps were conducted at ambient temperature.
Human pancreatic trypsin (1.5 nM final concentration) (Athens Research & Technology, Inc) was added to the dilutions then pre-incubated with the test UTI-Fc for 15 minutes. Next, the reaction was initiated with 100 μM (final) of substrate N[…]-Benzoyl-L-arginine-7-amido-4-methylcoumarin hydrochloride SIGMA B7260-25 MG. The reaction mixture total volume was 20 µl. Trypsin activity was determined via fluorescence. For example, the fluorescence intensity was determined in kinetic mode over a window of 30 to 60 minutes on a BMG PHERAstar FS or PHERAstar plus using an excitation wavelength of 370 nm and an emission wavelength of 470 nm. Trypsin activity was linearly proportional to the change in fluorescence observed (final−initial). […]
Where: Fi was the observed fluorescence at a given concentration of test UTI-Fc.
Fp was the observed fluorescence of a positive control i.e., the average value of 2 to 6 assays in the absence of Trypsin.
Fn was the observed fluorescence of a negative control i.e., the average value of 2 to 6 assays of Trypsin in the presence of vehicle alone. […]

For data set [13], the target named is Factor Xa (Homo sapiens, UniProt P00742). Particulars: full-length UTI (Morishita et al. 1994); cited from earlier work.
Factor Xa, sequence (P00742 235-488 limits assumed): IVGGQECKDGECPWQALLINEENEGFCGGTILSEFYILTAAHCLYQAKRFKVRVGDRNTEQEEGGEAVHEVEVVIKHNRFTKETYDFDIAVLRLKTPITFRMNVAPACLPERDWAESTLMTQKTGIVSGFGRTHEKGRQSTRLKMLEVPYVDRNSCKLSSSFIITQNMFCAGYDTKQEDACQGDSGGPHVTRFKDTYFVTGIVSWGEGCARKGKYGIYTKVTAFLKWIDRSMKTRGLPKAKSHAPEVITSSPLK
Factor Xa, sequence (P00742 41-179 partner limits assumed): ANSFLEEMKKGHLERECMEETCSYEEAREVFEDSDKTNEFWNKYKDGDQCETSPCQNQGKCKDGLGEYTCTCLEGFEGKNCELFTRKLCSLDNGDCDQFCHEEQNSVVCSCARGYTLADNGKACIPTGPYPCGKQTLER
[14] abbreviates: 1 mg/ml, Tris pH7.4, 25° C. to 110° C. at 200° C. per hour.

plasmin, sequence (P00747 581-810 limits assumed, species assumed): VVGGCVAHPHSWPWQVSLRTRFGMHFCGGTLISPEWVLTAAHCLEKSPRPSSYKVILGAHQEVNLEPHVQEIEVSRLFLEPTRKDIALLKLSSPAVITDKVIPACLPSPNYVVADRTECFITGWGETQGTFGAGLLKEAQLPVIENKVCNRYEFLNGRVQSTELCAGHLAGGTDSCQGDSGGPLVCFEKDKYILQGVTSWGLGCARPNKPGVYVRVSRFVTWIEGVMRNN
plasmin, sequence (P00747 97-580 partner limits assumed, species assumed): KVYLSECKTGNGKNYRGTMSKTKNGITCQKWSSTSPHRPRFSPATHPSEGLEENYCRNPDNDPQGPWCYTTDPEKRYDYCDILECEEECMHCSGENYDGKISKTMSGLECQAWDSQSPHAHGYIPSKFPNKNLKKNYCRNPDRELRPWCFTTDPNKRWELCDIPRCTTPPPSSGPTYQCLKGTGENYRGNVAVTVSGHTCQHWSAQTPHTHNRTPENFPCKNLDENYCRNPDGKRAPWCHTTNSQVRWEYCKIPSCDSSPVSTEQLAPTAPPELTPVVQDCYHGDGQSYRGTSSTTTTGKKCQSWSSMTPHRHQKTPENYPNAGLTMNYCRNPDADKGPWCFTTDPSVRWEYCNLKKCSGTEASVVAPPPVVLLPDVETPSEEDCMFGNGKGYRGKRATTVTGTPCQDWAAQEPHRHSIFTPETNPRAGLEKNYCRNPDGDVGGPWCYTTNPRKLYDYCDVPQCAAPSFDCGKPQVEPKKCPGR
cathepsin C, sequence (P53634 25-463, species assumed): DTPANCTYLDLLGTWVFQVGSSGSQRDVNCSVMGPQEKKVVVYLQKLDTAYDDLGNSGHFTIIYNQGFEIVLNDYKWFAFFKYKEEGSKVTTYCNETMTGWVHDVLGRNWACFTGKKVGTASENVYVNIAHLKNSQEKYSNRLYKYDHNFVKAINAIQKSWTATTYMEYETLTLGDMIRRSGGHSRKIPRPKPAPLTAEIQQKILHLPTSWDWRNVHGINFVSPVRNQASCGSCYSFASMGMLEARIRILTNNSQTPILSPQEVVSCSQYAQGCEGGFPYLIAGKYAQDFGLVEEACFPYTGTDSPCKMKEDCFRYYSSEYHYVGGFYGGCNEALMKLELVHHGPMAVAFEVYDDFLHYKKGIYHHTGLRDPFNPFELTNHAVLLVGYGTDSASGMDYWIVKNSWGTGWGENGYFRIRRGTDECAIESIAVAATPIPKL

On to “UTI-Fc1: UTI-Fc fusion protein, human UTI domain linked to wild type IgG1 Fc, SEQ ID NO: 1”, for which the “thermal stability compared to the UTI fusion proteins of CN 103044554A” value in data set [1] is reported as “greater thermal stability”. The “DSC Tm1” value in data set [1] (setting [14]) was 70.86 °C. The “DSC Tm2” value in [1] (setting [14]) came to 85.79 °C. Moreover, the inhibition of plasmin entry in [2] is “moderately”. Moreover, the “serum C5a” value in data set [3] (20 mg/kg iv), in [3] (50 mg/kg iv) and in data set [3] (100 mg/kg iv) was “significantly reduced” in each case. The “inhibition of caspase-1” value in [4] is recorded as “weak inhibition”. In addition, the “SEC percentage peak area Peak1” value in [5] (0 weeks) amounted to 35.7%; in data set [5] (2 weeks at 2-8° C.) it was 36.2%; in data set [5] (2 weeks at 40° C.), 37.1%; in [5] (4 weeks at 2-8° C.), 36.1%; in data set [5] (4 weeks at 40° C.) it was 36.8%. Besides, the “SEC percentage peak area Peak2” value in data set [5] (0 weeks) is given as 64.3%; in [5] (2 weeks at 2-8° C.) it was 63.8%; in [5] (2 weeks at 40° C.) it was 62.9%; in data set [5] (4 weeks at 2-8° C.), 63.9%; in data set [5] (4 weeks at 40° C.), 63.2%. Besides, the “% Δ (mg/ml), percentage change in concentration by A280” value was found to be 9.2% in data set [5] (2 weeks at 2-8° C.), 0.2% in data set [5] (2 weeks at 40° C.), 1.2% in data set [5] (4 weeks at 2-8° C.) and 11.9% in data set [5] (4 weeks at 40° C.). The inhibition of chymotrypsin result in data set [6] is reported as “moderately”. In [7], the inhibition of papain entry is given as “weak inhibition”. The “inhibition of cathepsin C” value in data set [8] is listed as “weak inhibition”.

B1: UTI: Urinary Trypsin Inhibitor, protease inhibitor of about 40 kD present in human urine and blood (protein)
chain: AVLPQEEEGSGGGQLVTEVTKKEDSCQLGYSAGPCMGMTSRYFYNGTSMACETFQYGGCMGNGNNFVTEKECLQTCRTVAACNLPIVRGPCRAFIQLWAFDAVKGKCVLFPYGGCQGNGNKFYSEKECREYCGVPGDGDEELLRFSN
Broadly, the half-life is the time in which the quantity being followed falls by half. By IC50 is commonly meant the concentration that gives 50% inhibition. A lower IC50 goes with greater potency. On to B1, for which, in data set [9], the half-life is 4 to 30 min. In data set [10], the “inhibition of plasma kallikrien” value is given as “does not show inhibition”. For the same molecule, the “IC50 of trypsin-induced IL-6 production” value in data set [11] is 0.40 µg/mL. In data set [12], the 50% inhibitory concentration (IC50) was ~3 nM. The “inhibition of Factor Xa” value in [13] is recorded as “does not show inhibition”.
